Results: PMC5458759 (Genes & Development, 2017)

B1: TMM^LRR, extracellular LRR domain of TOO MANY MOUTHS (TMM) (domain or fragment)
chain: MTNDGARTEPDEQDAVYDIMRATGNDWAAAIPDVCRGRWHGIECMPDQDNVYHVVSLSFGALSDDTAFPTCDPQRSYVSESLTRLKHLKALFFYRCLGRAPQRIPAFLGRLGSSLQTLVLRENGFLGPIPDELGNLTNLKVLDLHKNHLNGSIPLSFNRFSGLRSLDLSGNRLTGSIPGFVLPALSVLDLNQNLLTGPVPPTLTSCGSLIKIDLSRNRVTGPIPESINRLNQLVLLDLSYNRLSGPFPSSLQGLNSLQALMLKGNTKFSTTIPENAFKGLKNLMILVLSNTNIQGSIPKSLTRLNSLRVLHLEGNNLTGEIPLEFRDVKHLSELRLNDNSLTGPVPFERDTVWRMRRKLRLYNNAGLCVNRDSDLDDAFGSKSGSTVRLCDAETSRPAPSGTVQHLSREEDGALPDGATDVSST

Tests used:
[1] = molecular target: T1, ER^LRR, extracellular LRR domain of ERECTA (ER) (Arabidopsis thaliana, UniProt Q42371 24-580); assay: SEC
T1 sequence: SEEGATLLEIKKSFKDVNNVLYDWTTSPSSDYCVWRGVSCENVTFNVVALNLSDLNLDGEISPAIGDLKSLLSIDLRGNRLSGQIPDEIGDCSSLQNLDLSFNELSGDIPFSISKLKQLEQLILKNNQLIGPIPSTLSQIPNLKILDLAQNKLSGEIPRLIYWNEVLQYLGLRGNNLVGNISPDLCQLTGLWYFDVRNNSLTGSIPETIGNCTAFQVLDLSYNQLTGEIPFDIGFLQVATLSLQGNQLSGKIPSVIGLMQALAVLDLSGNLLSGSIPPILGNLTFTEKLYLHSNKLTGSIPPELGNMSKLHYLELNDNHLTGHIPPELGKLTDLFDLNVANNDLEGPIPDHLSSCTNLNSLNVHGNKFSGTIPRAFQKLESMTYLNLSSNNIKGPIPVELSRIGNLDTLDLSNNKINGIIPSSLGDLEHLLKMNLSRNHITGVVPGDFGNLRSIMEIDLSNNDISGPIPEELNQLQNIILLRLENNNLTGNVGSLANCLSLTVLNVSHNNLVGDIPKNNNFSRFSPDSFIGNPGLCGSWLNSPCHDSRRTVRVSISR

[2] = molecular target: T2, ERL1^LRR, extracellular LRR domain of ER-LIKE1 (ERL1) (Arabidopsis thaliana, UniProt C0LGW6 24-580); assay: SEC
T2 sequence: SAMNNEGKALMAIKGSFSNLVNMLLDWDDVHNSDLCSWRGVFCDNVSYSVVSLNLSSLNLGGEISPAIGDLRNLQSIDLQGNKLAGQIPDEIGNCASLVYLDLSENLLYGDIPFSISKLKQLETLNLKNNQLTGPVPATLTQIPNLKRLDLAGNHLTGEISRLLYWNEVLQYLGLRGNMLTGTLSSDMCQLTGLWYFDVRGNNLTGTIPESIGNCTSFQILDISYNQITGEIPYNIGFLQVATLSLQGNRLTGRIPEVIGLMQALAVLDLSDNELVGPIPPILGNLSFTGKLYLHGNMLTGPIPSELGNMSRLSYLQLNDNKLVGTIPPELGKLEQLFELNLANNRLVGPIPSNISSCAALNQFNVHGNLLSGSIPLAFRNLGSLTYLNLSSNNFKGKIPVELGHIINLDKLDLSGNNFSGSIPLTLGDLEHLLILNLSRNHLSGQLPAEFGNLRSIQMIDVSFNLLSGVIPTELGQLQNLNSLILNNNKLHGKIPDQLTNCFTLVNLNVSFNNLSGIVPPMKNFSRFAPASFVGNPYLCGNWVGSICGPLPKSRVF

ER^LRR–TMM^LRR complex [3] = molecular target: T3, ER^LRR–TMM^LRR complex (Arabidopsis thaliana, UniProt Q42371;Q9SSD1); assay: SEC
T3 sequence 1: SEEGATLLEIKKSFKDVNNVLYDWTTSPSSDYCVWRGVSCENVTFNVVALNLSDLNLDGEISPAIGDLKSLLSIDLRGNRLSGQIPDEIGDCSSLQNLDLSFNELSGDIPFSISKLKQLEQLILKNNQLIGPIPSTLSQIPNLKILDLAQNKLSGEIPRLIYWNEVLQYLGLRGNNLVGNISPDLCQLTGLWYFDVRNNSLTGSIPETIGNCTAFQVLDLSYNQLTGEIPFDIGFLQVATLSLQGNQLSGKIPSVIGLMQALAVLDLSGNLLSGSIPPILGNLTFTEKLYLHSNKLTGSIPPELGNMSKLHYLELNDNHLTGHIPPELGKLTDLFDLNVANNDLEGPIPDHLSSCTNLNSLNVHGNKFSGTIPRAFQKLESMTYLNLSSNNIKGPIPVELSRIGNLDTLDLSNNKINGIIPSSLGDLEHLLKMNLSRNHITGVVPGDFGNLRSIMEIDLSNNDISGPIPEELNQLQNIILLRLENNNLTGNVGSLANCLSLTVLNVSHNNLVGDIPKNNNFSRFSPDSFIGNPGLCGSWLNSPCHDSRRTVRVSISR
T3 sequence 2: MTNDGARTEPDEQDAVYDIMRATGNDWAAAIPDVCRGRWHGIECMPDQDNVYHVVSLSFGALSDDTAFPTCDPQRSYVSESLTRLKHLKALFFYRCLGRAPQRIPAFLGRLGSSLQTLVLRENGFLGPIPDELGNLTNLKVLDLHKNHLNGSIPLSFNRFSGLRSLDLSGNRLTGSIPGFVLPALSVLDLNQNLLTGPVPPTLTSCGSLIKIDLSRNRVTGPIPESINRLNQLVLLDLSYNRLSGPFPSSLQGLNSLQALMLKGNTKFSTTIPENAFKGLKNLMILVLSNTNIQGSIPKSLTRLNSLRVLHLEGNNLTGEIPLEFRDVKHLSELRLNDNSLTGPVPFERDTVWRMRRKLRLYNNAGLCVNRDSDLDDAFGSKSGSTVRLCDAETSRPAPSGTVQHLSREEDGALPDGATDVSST

[4] = molecular target: B1; assay: crystal structure
ER^LRR–TMM^LRR complex [5] = molecular target: T3, ER^LRR–TMM^LRR complex; assay: pull-down
ERL1^LRR–TMM^LRR complex = molecular target: T4, ERL1^LRR–TMM^LRR complex (Arabidopsis thaliana, UniProt C0LGW6;Q9SSD1); assay: ITC
T4 sequence 1: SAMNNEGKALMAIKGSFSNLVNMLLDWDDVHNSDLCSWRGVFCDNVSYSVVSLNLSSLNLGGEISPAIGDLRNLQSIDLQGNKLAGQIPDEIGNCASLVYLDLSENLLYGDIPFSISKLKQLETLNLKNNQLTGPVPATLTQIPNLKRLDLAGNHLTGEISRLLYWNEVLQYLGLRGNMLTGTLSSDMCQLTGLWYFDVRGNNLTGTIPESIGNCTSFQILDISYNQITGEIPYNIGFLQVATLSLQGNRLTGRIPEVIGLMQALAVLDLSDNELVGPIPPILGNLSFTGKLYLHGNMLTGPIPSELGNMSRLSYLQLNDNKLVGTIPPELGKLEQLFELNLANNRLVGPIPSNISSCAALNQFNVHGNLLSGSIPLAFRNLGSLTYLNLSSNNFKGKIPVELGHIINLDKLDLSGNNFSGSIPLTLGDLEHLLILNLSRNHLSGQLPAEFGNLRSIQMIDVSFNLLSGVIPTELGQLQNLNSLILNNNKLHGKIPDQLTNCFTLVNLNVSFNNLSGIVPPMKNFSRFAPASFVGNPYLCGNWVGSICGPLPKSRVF
T4 sequence 2: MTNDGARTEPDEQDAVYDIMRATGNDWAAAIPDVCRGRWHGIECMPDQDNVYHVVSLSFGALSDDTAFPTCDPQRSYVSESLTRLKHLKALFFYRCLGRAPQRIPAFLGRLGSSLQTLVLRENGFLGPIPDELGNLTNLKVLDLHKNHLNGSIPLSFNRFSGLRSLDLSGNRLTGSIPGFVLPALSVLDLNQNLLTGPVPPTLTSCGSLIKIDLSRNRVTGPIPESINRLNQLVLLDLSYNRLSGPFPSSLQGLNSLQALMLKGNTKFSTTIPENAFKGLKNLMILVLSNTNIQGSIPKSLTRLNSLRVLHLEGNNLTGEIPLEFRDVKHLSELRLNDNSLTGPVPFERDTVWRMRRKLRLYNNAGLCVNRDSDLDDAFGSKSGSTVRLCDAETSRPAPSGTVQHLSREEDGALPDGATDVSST

[6] = molecular target: T1, ER^LRR, extracellular LRR domain of …; assay: pull-down
[7] = molecular target: T5, ERL2^LRR, extracellular LRR domain of ERL2 (Arabidopsis thaliana, UniProt Q6XAT2 28-580); assay: pull-down
T5 sequence: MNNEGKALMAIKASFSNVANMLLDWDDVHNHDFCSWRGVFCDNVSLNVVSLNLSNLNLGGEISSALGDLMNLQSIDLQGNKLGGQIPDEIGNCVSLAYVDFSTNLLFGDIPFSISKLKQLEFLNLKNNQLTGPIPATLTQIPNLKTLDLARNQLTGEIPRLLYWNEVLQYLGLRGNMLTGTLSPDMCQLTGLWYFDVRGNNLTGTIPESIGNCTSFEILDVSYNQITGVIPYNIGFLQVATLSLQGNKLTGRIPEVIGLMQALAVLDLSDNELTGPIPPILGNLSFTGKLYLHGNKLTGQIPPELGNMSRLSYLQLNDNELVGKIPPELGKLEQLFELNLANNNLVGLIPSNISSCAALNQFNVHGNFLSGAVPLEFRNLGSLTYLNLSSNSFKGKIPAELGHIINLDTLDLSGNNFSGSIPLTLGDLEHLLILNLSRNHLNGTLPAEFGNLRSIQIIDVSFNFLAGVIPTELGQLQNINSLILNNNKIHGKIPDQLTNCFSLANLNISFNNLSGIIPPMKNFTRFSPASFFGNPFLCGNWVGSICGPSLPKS

In the case of B1, the “stoichiometry N” value [1] is reported as ~1 and the “stoichiometry N” value [2] is reported as ~1.

B2: … PATTERNING FACTOR 2 (EPF2) peptide, residues 69–120 (peptide)
chain: TGSSLPDCSYACGACSPCKRVMISFECSVAESCSVIYRCTCRGRYYHVPSRA
B2: binds (ER^LRR–TMM^LRR complex [3]); binds [4].

B3: EPF2-6xHis (C-terminally His-tagged EPF2) (peptide)
chain: TGSSLPDCSYACGACSPCKRVMISFECSVAESCSVIYRCTCRGRYYHVPSRA
B3: binds (ER^LRR–TMM^LRR complex [5]).

B4: … PATTERNING FACTOR 1 (EPF1) peptide, residues 53–104 (peptide)
chain: AGSRLPDCSHACGSCSPCRLVMVSFVCASVEEAETCPMAYKCMCNNKSYPVP
B4: binds (ER^LRR–TMM^LRR complex [3]); binds [4].

B5: EPFL4 (CHALLAH-LIKE2, CLL2) peptide, residues 59–109 (peptide)
chain: PGSSPPTCRSKCGKCQPCKPVHVPIQPGLSMPLEYYPEAWRCKCGNKLFMP
B5 was tested, and the Kd (ERL1^LRR–TMM^LRR complex) was 1300 nM, the binding result [6] was “binds” and the binding result [7] was “binds”.
